The text below walks through data of patent US9777041B2, “Protein nanofibers from self-assembling pentamers” (New York University, priority 2013, dated 2017).

The nature of data set [1]: ATR-FTIR secondary structure of solid-state protein. The note with it: 10 μM protein in 50 mM PB. The data set is classed as physicochemical. On the procedure:
Attenuated Total Reflectance Fourier Transform Infrared Spectroscopy (ATR-FTIR): ATR-FTIR experiments were performed using Perkin Elmer System 2000 FT-IR with DuraSamplIR II T diamond ATR accessory and equipped with a MCT-A detector. Approximately, 5 μL of peptide solution (10 μM in 50 mM PB, pH 4, 8, and 10) was added on the diamond ATR surface. The spectrum (128 scans) was measured at room temperature over a range of 4000-400 cm^−1 with 0.5 cm^−1 resolution. PeakFit software was used to process the data, which involved a 2nd derivative zero baseline correction of the amide I region between 1700-1600 cm^−1 and deconvolution of peaks with a Gaussian function. All readings represent the average of two trials.
To quantifying the secondary structure of the protein in its solid-state, ATR-FTIR experiments were conducted to evaluate secondary structure of insoluble Q fibers at pH 4, 8, and 10 (Table 8). The frequency measured in the regions of the amide I and amide II absorptions of a protein correlate to the secondary structural motifs within the protein, and were thereby used to assess conformation of the protein in its solid-state (FIGS. 20a-20d). Secondary structure conformation based on ATR-FTIR data for Q in 50 mM PB at pH 4, 8, and 10, and in the presence of curcumin at a 5:1 molar ratio with Q at pH 4 are shown in […]. Percent composition was determined from relative areas of peaks fit to spectra (FIGS. 20a-20d).
Secondary structure conformation based on ATR-FTIR data for 10 μM protein in 50 mM PB before and after templation of AuNPs is provided in Table 10. Percent composition was determined from relative areas of peaks fit to spectra (see spectra FIGS. 37a-37d, FIGS. 38a-38d).

The nature of data set [2]: Transmission electron microscopy of protein fibers. The data set is classed as physicochemical. The note with it: for fiber formation seen by TEM: pH 4, 50 mM PB. The method, then: Transmission electron microscopy: A JEOL JEM-1400 transmission electron microscope (TEM) was used to study the supramolecular protein structure. […] After 1 minute, the grids were blotted using filter paper and rinsed with 3-4 drops Milli Q water to remove excess salts from the buffer. After blotting with filter paper, the sample was negatively stained by adding 3 μL of 1% filtered uranyl acetate, blotted using filter paper, and dried at room temperature for 10-15 minutes. ImageJ software was used to measure the fibers dimensions.

Data set [3] can be described thus: Confocal microscopy of protein fibers in the presence of curcumin. The note with it: protein:curcumin 1:5, 50 mM phosphate buffer pH 4. The data set is classed as physicochemical. The method, then:
FIGS. 7a-7c show confocal microscopy of CC, Q54, and COMPcc^S wt, in the presence of curcumin. The mixture of protein to curcumin were all at a ratio of 1:5. […] All different proteins are in 50 mM phosphate buffer, pH 4. Protein and curcumin samples were combined and incubated for 12 hours prior to imaging. […] The width of COMPcc^S wt shown in FIG. 7c was determined to be 12.72 μm. […] Overall, Q54 fibers appeared to be more uniform in width, as well as more robust and consistent in fiber formation.
Confocal microscopy: Samples were imaged using a Leica TCS SP2 AOBS confocal microscope system equipped with argon ion and HeNe lasers. A 63×/1.4 NA oil-immersion objective was used for all of the images. Lab-Tek II chambered #1.5 German coverglass system was used as the imaging slide. Curcumin was excited using the 458 nm line of the argon laser, and images were taken with the detection window set between 465 and 560 nm. The pinhole aperture was set at an Airy value of 1.0, which was equivalent to sampling an ˜500 nm vertical z slice of the fiber, as estimated by the axial resolution, rz,confocal≈1.4λcm n/NA^2 (NA, numerical aperture; n, refractive index; λcm, emission wavelength (525 nm)). Interference contrast images were obtained using the Leica tube optics HC 1×/B apparatus with a focusing Bertrand lens. The 3D reconstructions were constructed using ImageJ 64 1.43 in concert with Amira 5.43, employing the Volren 3D rendering routine.

Data set [4] can be described thus: Curcumin binding fluorescence. As to conditions: in the presence of Zn^2+. The text has this: FIG. 40. Fluorescence of C and Q or with incorporated trifluoroleucine/TFL (C TFL and Q TFL) in the presence of no metal, Ni (II), or Zn (II) and curcumin. An increase in fluorescence indicates structural stability of the protein as it is able to bind with curcumin, the fluorescent probe in this case.

Data set [5] can be described thus: Circular dichroism wavelength scans (secondary structure). The data set is classed as physicochemical. The note with it: for −θ222 × 10^3 / −θmin × 10^3: 10 μM protein; for random coil / α helices / β sheet: CD, K2D method. The method, then:
(§1) Circular dichroism: Circular dichroism (CD) measurements were conducted on a Jasco J-815 CD spectrometer. Wavelength and temperature scans were conducted with 10 μM (6.3×10^−2 mg/mL) protein concentrations. The wavelength spectrum was measured over a range from 190 to 250 nm with a step size of 1 nm Mean residue ellipticity (MRE) was calculated from raw data according to the procedure described in Gunasekar et al. 2009. Secondary structure analysis of α-helical, β-sheet, and random coil content was calculated with the K2D method using DichroWeb software. Temperature scans of each protein were performed over a range of 20-85° C. with a temperature step of 1° C./min at 222 nm. Scans were also performed at of 2° C./min and 5° C./min to evaluate dependence of thermal melt signatures on scan speed. All measurements were made in duplicates of independently prepared proteins and data represents the average. Thermodynamic properties of wt and Q were determined through analysis of thermal melts. A two-state model was used, where assumptions included monophasic behavior and reversible melting behavior. These assumptions were confirmed experimentally by melting (from 20 to 85° C.) and cooling (from 85 to 20° C.) the proteins. Calculation of thermodynamic parameters including Tm, ΔG°, ΔH°, and ΔS° were performed according to the method described by Greenfield.
To assess the secondary structure of the proteins under acidic as well as neutral and basic conditions in solution, CD measurements were performed. […] The presence of residue P28 towards the center of Q may have influenced the secondary structure, showing decreased helical content when compared to wt at pH 4 and 10 (FIG. 16). The negative control, L, was completely unstructured, devoid of helical content at pH 4 (FIG. 11). […] As the pH increased, the helical content of soluble Q protein increased.
Mean residual ellipticities from circular dichroism measurements at pH 4, 8, and 10 for wt, L, and Q. The data presented in Table 5 represents the average and standard deviation of at least two replicates.
Background: CD spectra are sensitive to the conformation of chiral molecules.

The nature of data set [6]: Circular dichroism thermal melts at 222 nm, van't Hoff analysis. It is filed as physicochemical. The note with it: for Tm: 10 μM protein; for ΔG° (free energy of folding): at 25° C.; for ΔS°: ΔS° = ΔH°/Tm. The method, then: as §1
Thermodynamic properties were assessed via thermal melt of the proteins at 222 nm. Prior to calculating thermodynamic constants, assumptions of monophasic behavior and melt reversibility were confirmed experimentally for wt and Q at all pHs by melting and cooling proteins (FIGS. 18a-18d). The van't Hoff equation was applied to thermal melts of the proteins in the range of 20-85° C.

For data set [7] the following is noted: without any evidence for protofibrils; cited from earlier work.

As for “Qx: variant of Q54 void of the 6×his tag, SEQ ID NO:6 (VKEITFLKNTAPQMLRELQETNAALQDVRELLRQQSKL)”, in data set [1] (+AuNP (after templation)), the “Random, percent composition” value was 20%; the “α helix, percent composition” value is recorded as 48%; the “β sheet, percent composition” value amounted to 32%. For the same molecule, in data set [1] (before templation of AuNPs), the “Random, percent composition” value is given as 29%; the “α helix, percent composition” value was 45%; the “β sheet, percent composition” value stood at 26%.
Turning to “C: CC protein, SEQ ID NO:1, variant of COMPcc; coiled-coil forming homopentamers (MRGSHHHHHHGSIEGRAPQMLRELQETNAALQDVRELLRQQVKEITFLKNTSKL)”, the “fiber formation seen by TEM” value in data set [2] is “not been observed to form fibers”. In data set [1] (+AuNP (after templation)), the “Random, percent composition” value was found to be 16%; the “α helix, percent composition” value is on record as 30%; the “β sheet, percent composition” value turned out to be 54%. For the same molecule, in data set [1] (before templation of AuNPs), the “Random, percent composition” value stood at 28%; the “α helix, percent composition” value was 38%; the “β sheet, percent composition” value is reported as 33%. For the same molecule, the “average width of protein fibers” value in data set [3] (20 mM protein, 100 mM curcumin, 12 hours) is listed as 19.24±12 μm. The “binding to small molecule (curcumin fluorescence)” value in data set [4] is reported as “substantially increase the binding to small molecule”.
As for “L: L44 protein, SEQ ID NO:3, variant of COMPcc; negative control swap protein (MRGSHHHHHHGSIEGRLQDVERLLRQQVKEITFLKNTAPQMLRELQETNAASKL) [reference compound]”, in data set [5] (pH 4), the “−θ222 × 10^3” value is recorded as −0.41 10^3 deg cm^2 dmol^-1, the “−θmin × 10^3” value is on record as 5.18 10^3 deg cm^2 dmol^-1, the random coil amounted to 43% and the α helices came to 9%. For the same molecule, in data set [5] (pH 4), the β sheet turned out to be 49%. Moreover, in data set [5] (pH 8), the “−θ222 × 10^3” value is 3.54 10^3 deg cm^2 dmol^-1, the “−θmin × 10^3” value was 4.14 10^3 deg cm^2 dmol^-1, the random coil was 49% and the α helices turned out to be 13%. This molecule displayed a β sheet in data set [5] (pH 8) of 38%. Also, in data set [5] (pH 10), the “−θ222 × 10^3” value is 3.40 10^3 deg cm^2 dmol^-1, the “−θmin × 10^3” value was 3.89 10^3 deg cm^2 dmol^-1, the random coil came out at 52% and the α helices is listed as 16%. In data set [5] (pH 10), this molecule registered a β sheet of 32%. Besides, the “fiber formation seen by TEM” value in data set [2] was “not been observed to form fibers”. For the same molecule, the “fiber formation seen by confocal microscopy” value in data set [3] was “No fibers were seen”.

B1: wt: coiled-coil region of cartilage oligomeric matrix protein with the two cysteines replaced by serines, SEQ ID NO:4 (protein)
chain: MRGSHHHHHHGSGDLAPQMLRELQETNAALQDVRELLRQQVKEITFLKNTVMESDASGKLN
modifications: human
In the case of B1, in data set [5] (pH 4), the “−θ222 × 10^3” value was 13.18 10^3 deg cm^2 dmol^-1, the “−θmin × 10^3” value is recorded as 13.02 10^3 deg cm^2 dmol^-1, the random coil came to 32% and the α helices stood at 50%. Further, in data set [5] (pH 4), the β sheet worked out at 18%. In data set [5] (pH 8), the “−θ222 × 10^3” value is 18.28 10^3 deg cm^2 dmol^-1, the “−θmin × 10^3” value is reported as 17.61 10^3 deg cm^2 dmol^-1, the random coil came to 30% and the α helices is given as 64%. Also, the β sheet in data set [5] (pH 8) turned out to be 6%. In data set [5] (pH 10), the “−θ222 × 10^3” value is on record as 17.84 10^3 deg cm^2 dmol^-1, the “−θmin × 10^3” value is recorded as 17.13 10^3 deg cm^2 dmol^-1, the random coil is reported as 31% and the α helices is on record as 63%. This molecule also came in with a β sheet in data set [5] (pH 10) of 6%. Also, in data set [6] (pH 4), the “ΔH° (van't Hoff enthalpy)” value was -29.9 kcal/mol; the Tm (as a rule, the temperature at which the thermal transition is half complete) came to 48.2 °C; the “ΔG° (free energy of folding)” value is -2.2 kcal/mol; the ΔS° is -93 cal/(mol·K). In addition, in data set [6] (pH 8), the “ΔH° (van't Hoff enthalpy)” value is -31.0 kcal/mol, the Tm stood at 48.8 °C, the “ΔG° (free energy of folding)” value is -2.3 kcal/mol and the ΔS° was -96.6 cal/(mol·K). In addition, in data set [6] (pH 10), the “ΔH° (van't Hoff enthalpy)” value was -29.8 kcal/mol, the Tm came to 46.3 °C, the “ΔG° (free energy of folding)” value was -2.0 kcal/mol and the ΔS° is -93.3 cal/(mol·K). In data set [2] (pH 8, 10 mM PB), this molecule had a fiber diameters of 17±3 nm. For the same molecule, the width of fibers in data set [3] (12 hours) is recorded as 12.72 μm. For the same molecule, the “fiber diameters (known)” value in data set [7] is on record as 10-15 nm.
